Assay results taken from patent US20260116921A1, “PEPTIDE INHIBITORS OF INTERLEUKIN-23 RECEPTOR AND THEIR USE TO TREAT INFLAMMATORY DISEASES” (priority 2018, published 2026).
Where two headings read alike, the source gives them in different places. Values belong to the binder of their own block, whether it stands above or below them. Bridge positions count the residues as written; N and C are the ends. Square brackets hold non-standard residues; d marks the D form. Trp(4-OMe) = COc1cccc2[nH]cc(C[C@H](N)C(=O)O)c12; Trp(5-Cl) = N[C@@H](Cc1c[nH]c2ccc(Cl)cc12)C(=O)O; Trp(5-OH) = N[C@@H](Cc1c[nH]c2ccc(O)cc12)C(=O)O; AEF = NCCOc1ccc(C[C@H](N)C(=O)O)cc1; αMeL = CC(C)C[C@](C)(N)C(=O)O; Pen = CC(C)(S)[C@H](N)C(=O)O

Key:
Assay in all cases: cell-based or functional assay
[1] = target: T1, IL-23R (human, UniProt Q5VWK5 24-629)
T1 sequence (looked up): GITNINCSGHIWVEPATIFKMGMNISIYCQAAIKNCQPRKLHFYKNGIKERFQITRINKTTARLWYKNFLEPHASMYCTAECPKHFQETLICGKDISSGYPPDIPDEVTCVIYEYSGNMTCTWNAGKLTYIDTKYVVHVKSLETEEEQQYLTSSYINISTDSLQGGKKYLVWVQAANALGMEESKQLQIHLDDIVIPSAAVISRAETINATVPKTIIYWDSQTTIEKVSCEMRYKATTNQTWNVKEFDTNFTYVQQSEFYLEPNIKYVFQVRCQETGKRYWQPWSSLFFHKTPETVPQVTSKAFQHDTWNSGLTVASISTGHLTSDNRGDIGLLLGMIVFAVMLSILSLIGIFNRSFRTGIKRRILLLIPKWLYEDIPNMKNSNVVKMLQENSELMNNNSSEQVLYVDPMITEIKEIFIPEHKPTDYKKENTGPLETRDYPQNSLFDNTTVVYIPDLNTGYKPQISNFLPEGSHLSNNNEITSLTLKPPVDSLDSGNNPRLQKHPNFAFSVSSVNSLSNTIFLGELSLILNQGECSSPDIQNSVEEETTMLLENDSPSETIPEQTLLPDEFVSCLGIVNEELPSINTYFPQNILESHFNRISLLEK

[2] = target: T1, IL-23R; remark: listed apart in the source
[3] = target: T1, IL-23R; remark: listed apart in the source

pStat3 HTRF (nM) IC50 [1]: > 100 nM
B1: SEQ ID NO: 15 (peptide)
peptide: Ac-[Pen]NTWQ[Pen][AEF][Trp(4-OMe)][αMeL]K(Ac)NN-NH2
modifications: disulfide 1-6
SMILES: COc1cccc2[nH]cc(C[C@H](NC(=O)[C@H](Cc3ccc(OCCN)cc3)NC(=O)[C@H]3NC(=O)[C@H](CCC(N)=O)NC(=O)[C@H](Cc4c[nH]c5ccccc45)NC(=O)[C@H]([C@@H](C)O)NC(=O)[C@H](CC(N)=O)NC(=O)[C@@H](NC(C)=O)C(C)(C)SSC3(C)C)C(=O)N[C@@](C)(CC(C)C)C(=O)N[C@@H](CCCCNC(C)=O)C(=O)N[C@@H](CC(N)=O)C(=O)N[C@@H](CC(N)=O)C(N)=O)c12

pStat3 HTRF (nM) IC50 [2]: < 1 nM
B2: SEQ ID NO: 27 (peptide)
peptide: RXQTXQCXXXENN
modifications: Ac-[(D)Arg]-[Abu]-QT-[W(7-Me)]-QC-[Phe[4-(2-aminoethoxy)]-[2-Nal]-[THP]-ENN-NH2; Abu-Cys thioether

pStat3 HTRF (nM) IC50 [1]: < 1 nM
NK Cell Assay (nM) IC50 [3]: < 10 nM
B3: SEQ ID NO: 6 (peptide)
peptide: XNTXQXXXXKNN
modifications: Ac-[Pen]-NT-[W(7-Me)]-Gln-[Pen]-[Phe[4-(2-aminoethoxy)]-[2-Nal]-[α-MeLeu]-[Lys(Ac)]-NN-NH2; Pen-Pen disulfide

pStat3 HTRF (nM) IC50 [1]: > 100 nM
B4: SEQ ID NO: 12 (peptide)
peptide: Ac-[Pen]NTWQ[Pen][AEF][Trp(5-Cl)][αMeL]K(Ac)NN-NH2
modifications: disulfide 1-6
SMILES: CC(=O)NCCCC[C@H](NC(=O)[C@](C)(CC(C)C)NC(=O)[C@H](Cc1c[nH]c2ccc(Cl)cc12)NC(=O)[C@H](Cc1ccc(OCCN)cc1)NC(=O)[C@H]1NC(=O)[C@H](CCC(N)=O)NC(=O)[C@H](Cc2c[nH]c3ccccc23)NC(=O)[C@H]([C@@H](C)O)NC(=O)[C@H](CC(N)=O)NC(=O)[C@@H](NC(C)=O)C(C)(C)SSC1(C)C)C(=O)N[C@@H](CC(N)=O)C(=O)N[C@@H](CC(N)=O)C(N)=O

pStat3 HTRF (nM) IC50 [1]: > 100 nM
B5: SEQ ID NO: 9 (peptide)
peptide: XNTXQXXXXKNN
modifications: Ac-[Pen]-NT-[W(5-OMe)]-Gln-[Pen]-[Phe[4-(2-aminoethoxy)]-[2-Nal]-[α-MeLeu]-[Lys(Ac)]-NN-NH2; Pen-Pen disulfide

pStat3 HTRF (nM) IC50 [2]: < 1 nM
B6: SEQ ID NO: 28 (peptide)
peptide: XQTXQCXXXENN
modifications: Ac-[Abu]-QT-[W(7-Me)]-QC-[Phe[4-(2-aminoethoxy)]-[2-Nal]-[THP]-ENN-NH2; Abu-Cys thioether

pStat3 HTRF (nM) IC50 [1]: > 100 nM
B7: SEQ ID NO: 10 (peptide)
peptide: XNTXQXXXXKNN
modifications: Ac-[Pen]-NT-[W(5-OH)]-Gln-[Pen]-[Phe[4-(2-aminoethoxy)]-[2-Nal]-[α-MeLeu]-[Lys(Ac)]-NN-NH2; Pen-Pen disulfide

pStat3 HTRF (nM) IC50 [1]: > 100 nM
B8: SEQ ID NO: 21 (peptide)
peptide: Ac-[Pen]NTWQ[Pen][AEF][Trp(5-OH)][αMeL]K(Ac)NN-NH2
modifications: disulfide 1-6
SMILES: CC(=O)NCCCC[C@H](NC(=O)[C@](C)(CC(C)C)NC(=O)[C@H](Cc1c[nH]c2ccc(O)cc12)NC(=O)[C@H](Cc1ccc(OCCN)cc1)NC(=O)[C@H]1NC(=O)[C@H](CCC(N)=O)NC(=O)[C@H](Cc2c[nH]c3ccccc23)NC(=O)[C@H]([C@@H](C)O)NC(=O)[C@H](CC(N)=O)NC(=O)[C@@H](NC(C)=O)C(C)(C)SSC1(C)C)C(=O)N[C@@H](CC(N)=O)C(=O)N[C@@H](CC(N)=O)C(N)=O

pStat3 HTRF (nM) IC50 [1]: > 100 nM
B9: SEQ ID NO: 11 (peptide)
peptide: XNTXQXXXXKNN
modifications: Ac-[Pen]-NT-[W(5-Br)]-Gln-[Pen]-[Phe[4-(2-aminoethoxy)]-[2-Nal]-[α-MeLeu]-[Lys(Ac)]-NN-NH2; Pen-Pen disulfide
